Test results reported in patent CN116813769A (FUZHOU CREMAB PHARMACEUTICAL INC, dated 2023).
Values belong to the binder of their own block, whether it stands above or below them.

Experiments:
[1] = target: T1, 人CD47胞外段-His tag重组蛋白 (SinoBiological 12283-H08H) (human, UniProt Q08722 19-139); experiment: BLI (Octet K2), HIS1K sensor loaded with CD47-his tag, antibody in solution, 1:1 fit
T1 construct: extracellular domain; Bought reagent; Captured on HIS1K sensor; also called CD47-his tag蛋白

[2] = target: T2, 经生物素标记的CD47-hFc蛋白 (biotin-labelled CD47-hFc protein, expressed in house) (UniProt Q08722 19-141, biotin-labelled (site not stated)); experiment: BLI (Octet K2), SA sensor loaded with biotinylated CD47-hFc, antibody in solution, 1:1 fit
T2 construct: Self-expressed; Captured on SA sensor
T2 sequence (Q08722 19-141): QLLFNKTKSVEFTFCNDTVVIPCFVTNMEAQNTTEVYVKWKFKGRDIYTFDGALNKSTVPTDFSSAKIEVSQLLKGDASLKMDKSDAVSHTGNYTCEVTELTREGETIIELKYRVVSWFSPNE

T1 sequence (Q08722 19-139 limits assumed): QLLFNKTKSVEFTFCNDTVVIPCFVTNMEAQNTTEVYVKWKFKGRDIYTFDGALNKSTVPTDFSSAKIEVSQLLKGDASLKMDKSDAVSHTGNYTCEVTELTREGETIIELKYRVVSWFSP

Kd [1]: 0.0202 nM
Kd [2]: 0.0276 nM
B1: 7DC4 (antibody, human IgG1, kappa, V domains shown)
VH: QVQLKQSGAELVQPGASVKLSCKASGYTFTNYYMYWLRQRPGQGLEWIGEINPSNGGTDFNEKFKSKATLTVDKSSSTAFMQLSSLTSDDSAVYYCARGGFTMDYWGQGTTVTVSS
VL: DVVMTQTPLSLPVSLGDQASISCRSSQSLVHSNGNTYLHWYLQKPGQSPKLLIYKVSNRFSGVPDRFSGSGSGTDFTLKISRVEAEDLGVYFCSQSTHVPLTFGAGTKLELKR
notes: Full-length chimeric antibody (mouse variable regions, human constant regions); also called 7DC4抗体

Kd [1]: 0.221 nM
Kd [2]: 0.192 nM
B2: 7DC2 (antibody, human IgG1, kappa, V domains shown)
VH: QVQLQQSGPELVKPGASVKMSCKASGYTFTNYFMHWVKQKPGQGLEWIGYINPYNDGTKYNEKFKGKATLTSDKSSSTAYMELSSLTSEDSAVYYCTKGGRYSMDYWGQGTTLTVSS
VL: DVVMTQTPLSLPVRLGDEVSISCRSSQTIVFTNGNTYLEWYLQKPGQSPKLLIYKVSNRFSGVPDRFSGSGSGTDFTLTISRVEAEDLGIYYCFQGSHVPYTFGGGTKLELKR
notes: Full-length chimeric antibody (mouse variable regions, human constant regions); also called 7DC2抗体
